Laboratory results published in patent US20120207760A1.

How the values were obtained:
[1] = biological target: M2 protein of influenza A/Puerto Rico/8/34 (H1N1), on inactivated virus (Influenza A virus A/Puerto Rico/8/34 (H1N1)) (UniProt P06821); test: surface plasmon resonance, Fab fragment on influenza virus
[2] = biological target: M2 protein of influenza A/Japan/305/57 (H2N2), on inactivated whole virions (Influenza A virus A/Japan/305/1957 (H2N2)) (UniProt Q6XU12); test: ELISA, positive control antibody on inactivated whole virions
[3] = biological target: recombinant soluble homotrimeric HA of A/Common magpie/Hong Kong/5052/07 - H5N1 (Influenza A virus A/common magpie/Hong Kong/5052/2007 (H5N1)); test: micro-array; captured IgG, V5-tagged trimeric HA

Sequence of TCN-032 (8I10) (antibody) (VH): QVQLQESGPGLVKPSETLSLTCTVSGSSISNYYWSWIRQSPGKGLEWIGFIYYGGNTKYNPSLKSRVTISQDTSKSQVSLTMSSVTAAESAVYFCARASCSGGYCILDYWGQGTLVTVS
Sequence of TCN-032 (8I10) (antibody) (VL): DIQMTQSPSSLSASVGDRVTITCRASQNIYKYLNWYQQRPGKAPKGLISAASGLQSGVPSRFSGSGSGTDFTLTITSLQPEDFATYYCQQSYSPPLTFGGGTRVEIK

ch14C2 Fab fragment
Kd [1]: 4 µM
koff [1]: 0.0018 s⁻¹
kon [1]: 500 M⁻¹ s⁻¹

TCN-032 (8I10) (antibody)
OD450 [2]: 3.61 OD450

TCN-202 (2N9) (antibody)
Trimeric HA Binding: RLU [3]: 1370 RLU
